Measured values taken from paper PMC7042382 (2020).

B1: A16.1 (TCR)
alpha TRAV4 TRAJ9 CDR3: CLVGEVRGGFKTIF
beta TRBV4-3 TRBJ2-5 CDR3: CASSQARGGAETQYF
B2: A16.2 (TCR)
alpha TRAV4 TRAJ20 CDR3: CLVGGEDYKLSF
beta TRBV4-3 TRBJ2-5 CDR3: CASSQARGGAETQYF

Biological target: HIV-1 Gag protein peptide on HLA-B*57:01 (human)
Assay: multimer staining

Binder	binding result
B1	recognises
B2	recognises
